{
  "source": "paper PMC10574445",
  "about": "“Label-Free Homogeneous Electrochemical Aptasensor Based on Size Exclusion/Charge-Selective Permeability of Nanochannel Arrays and 2D Nanorecognitive Probe for Sensitive Detection of Alpha-Fetoprotein”",
  "settings_in_all_cases": "protein: commercial",
  "key": {"alpha-fetoprotein (AFP)": {"target": "T1, alpha-fetoprotein (AFP) (UniProt P02771 19-609)", "T1 sequence": "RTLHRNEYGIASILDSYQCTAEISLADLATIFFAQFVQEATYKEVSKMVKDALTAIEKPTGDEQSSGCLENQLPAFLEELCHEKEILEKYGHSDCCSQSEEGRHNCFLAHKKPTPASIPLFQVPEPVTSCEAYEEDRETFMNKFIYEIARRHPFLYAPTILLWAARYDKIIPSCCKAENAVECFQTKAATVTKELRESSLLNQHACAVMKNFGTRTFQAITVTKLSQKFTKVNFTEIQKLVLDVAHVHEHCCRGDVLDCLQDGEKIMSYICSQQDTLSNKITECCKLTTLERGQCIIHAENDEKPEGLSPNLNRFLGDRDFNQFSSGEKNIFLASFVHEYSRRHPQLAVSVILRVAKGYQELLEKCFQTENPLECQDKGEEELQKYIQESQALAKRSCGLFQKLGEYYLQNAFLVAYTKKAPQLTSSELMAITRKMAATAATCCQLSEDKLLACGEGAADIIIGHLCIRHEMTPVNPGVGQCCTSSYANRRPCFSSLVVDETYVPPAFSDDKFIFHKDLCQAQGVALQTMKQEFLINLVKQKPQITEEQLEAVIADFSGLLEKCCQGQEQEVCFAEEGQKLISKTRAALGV", "experiment": "electrochemical aptasensor (DPV), aptamer release from graphene oxide; Ru(bpy)3 2+/Apt@GO probe; linear 1 pg/mL-1000 ng/mL, LOD 0.8 pg/mL (not a Kd); AFP incubated with Ru(bpy)3 2+/Apt@GO at 37 °C for 1 h, DPV on VMSF/ITO; buffer, salt and pH not given in the material"}, "[1]": {"target": "carcinoembryonic antigen (CEA) (UniProt P06731 35-685)", "sequence (P06731 35-685)": "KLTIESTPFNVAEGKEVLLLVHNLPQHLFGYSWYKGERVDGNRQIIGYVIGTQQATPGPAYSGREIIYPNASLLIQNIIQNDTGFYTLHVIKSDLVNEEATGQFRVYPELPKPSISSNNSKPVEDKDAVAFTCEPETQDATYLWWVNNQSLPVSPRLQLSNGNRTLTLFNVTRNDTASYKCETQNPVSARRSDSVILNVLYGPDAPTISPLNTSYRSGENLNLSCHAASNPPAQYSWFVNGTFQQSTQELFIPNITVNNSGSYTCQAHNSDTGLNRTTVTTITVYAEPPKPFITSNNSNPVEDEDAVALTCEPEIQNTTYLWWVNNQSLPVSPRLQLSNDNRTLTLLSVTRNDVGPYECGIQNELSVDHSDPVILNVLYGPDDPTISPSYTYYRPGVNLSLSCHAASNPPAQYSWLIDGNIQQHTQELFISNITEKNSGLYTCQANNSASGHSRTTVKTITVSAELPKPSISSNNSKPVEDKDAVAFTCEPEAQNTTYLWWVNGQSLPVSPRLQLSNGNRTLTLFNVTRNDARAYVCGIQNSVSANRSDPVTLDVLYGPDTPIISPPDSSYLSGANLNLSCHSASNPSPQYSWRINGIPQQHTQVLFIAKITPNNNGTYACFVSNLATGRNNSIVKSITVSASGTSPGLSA", "experiment": "electrochemical aptasensor (DPV), aptamer release from graphene oxide; Ru(bpy)3 2+/Apt@GO probe; no remarkable signal change; AFP incubated with Ru(bpy)3 2+/Apt@GO at 37 °C for 1 h, DPV on VMSF/ITO; buffer, salt and pH not given in the material"}, "[2]": {"target": "neutrophil gelatinase-associated lipocalin (NGAL) (UniProt P80188 21-198)", "sequence (P80188 21-198)": "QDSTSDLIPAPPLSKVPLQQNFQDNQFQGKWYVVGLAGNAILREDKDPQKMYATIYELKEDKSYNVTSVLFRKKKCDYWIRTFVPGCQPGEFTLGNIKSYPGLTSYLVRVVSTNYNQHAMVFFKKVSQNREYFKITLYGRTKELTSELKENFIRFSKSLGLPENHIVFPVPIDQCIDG", "experiment": "electrochemical aptasensor (DPV), aptamer release from graphene oxide; Ru(bpy)3 2+/Apt@GO probe; no remarkable signal change; AFP incubated with Ru(bpy)3 2+/Apt@GO at 37 °C for 1 h, DPV on VMSF/ITO; buffer, salt and pH not given in the material"}, "[3]": {"target": "PSA (printed as preprostate antigen) (UniProt P07288 25-261)", "sequence (P07288 25-261)": "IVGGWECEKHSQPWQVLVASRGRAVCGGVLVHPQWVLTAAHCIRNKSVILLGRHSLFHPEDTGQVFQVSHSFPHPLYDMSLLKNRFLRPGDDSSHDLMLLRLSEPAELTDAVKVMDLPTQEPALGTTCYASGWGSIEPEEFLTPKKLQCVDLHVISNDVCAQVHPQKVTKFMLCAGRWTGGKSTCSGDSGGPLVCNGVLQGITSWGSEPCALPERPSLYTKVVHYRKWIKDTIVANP", "experiment": "electrochemical aptasensor (DPV), aptamer release from graphene oxide; Ru(bpy)3 2+/Apt@GO probe; no remarkable signal change; AFP incubated with Ru(bpy)3 2+/Apt@GO at 37 °C for 1 h, DPV on VMSF/ITO; buffer, salt and pH not given in the material"}},
  "data": [
    {"binder": "ATCAGGTGCAGTTCTCGACTCGGTCTTGATGTGGG (ssDNA)", "note": "[AFP aptamer (Apt)]", "values": [
      {"measurement": "binding result", "setting": "alpha-fetoprotein (AFP)", "value": "binds"},
      {"measurement": "binding result", "setting": "[1]", "value": "no binding"},
      {"measurement": "binding result", "setting": "[2]", "value": "no binding"},
      {"measurement": "binding result", "setting": "[3]", "value": "no binding"}
    ]}
  ]
}
